Laboratory results published in patent US7268216B2, “Chimeric avidin mutants” (Licentia Oy, priority 2004, dated 2007).
Where two headings read alike, the source gives them in different places.

Assays:
[1] = Differential scanning calorimetry (DSC), heat denaturation; type: physicochemical
Protocol: The transition midpoint of the heat denaturation (Tm) of the avidin proteins was studied using a Calorimetry Sciences Corporation (CSC) Nano II differential scanning calorimeter, as in previous reports (22,23). Proteins (˜0.5 mg/ml) were analyzed both in the absence and presence of biotin (3:1 molar ratio; biotin:avidin monomer).

[2] = Microplate assay: remaining biotin-binding activity after heat treatment; type: physicochemical; conditions: 50 mM phosphate buffer, 100 mM NaCl, pH 7.0
Protocol: The inactivation of the proteins during heat-treatment was analysed by using a microplate assay (23). The proteins were heated to 99.9° C. in 50 mM phosphate buffer containing 100 mM NaCl (pH 7.0) for 32 minutes. The remaining activity was probed by measuring the ability of the proteins to bind biotinylated alkaline phosphatase by coating the microplate wells with samples of the heated proteins.

Proteinase K [3] = test: Proteinase K assay (proteolytic resistance, SDS-PAGE); type: physicochemical; conditions: for digested after treatment with Proteinase K: 16 hours, 37° C., Proteinase K 1/25 w/w, without biotin; for cleavage by Proteinase K: proteins saturated with biotin before treatment
Protocol: The proteolytic resistance of the proteins were studied using proteolysis by Proteinase K, as previously described (7). Protein sample (4 μg) was incubated in the presence of Proteinase K ( 1/25 w/w) at 37° C. for a predetermined time period, denatured by boiling in sample buffer (SDS, 2-mercaptoethanol) and subjected to SDS-PAGE followed by coomassie staining.

[4] = IAsys optical biosensor (SPR), 2-iminobiotin binding; conditions: 2-iminobiotin surface, 20° C., 50 mM borate buffer pH 9.5, 1 M NaCl
Protocol: The biotin-binding characteristics of the different avidins were studied by a surface plasmon resonance (SPR) optical biosensor (IAsys). The binding affinities to the 2-iminobiotin surface in 50 mM borate buffer (pH 9.5, 1 M NaCl) were measured as previously reported (7).

[5] = Radiobiotin dissociation assay; type: binding; conditions: [3H]biotin, various temperatures
Protocol: The dissociation rate of [3H]biotin from avidin, AVR4/5 and the avidin mutants was determined as described in (20) at various temperatures. The activation thermodynamic parameters for AVR4/5(C122S) and avidin were determined by analysis of the dependence of the dissociation rate upon temperature using the global fit of all data, as described in (21).

[6] = Fluorescent biotin dissociation assay; type: binding
Protocol: The binding of labelled biotin to avidins was analysed by a method based on the quenching of a biotin-coupled fluorescent probe ArcDia BF560 (ArcDia Ltd., Turku, Finland) due to binding to avidin, as previously described (18). The measurements were performed using a PerkinElmer LS55 luminometer with thermostated cuvette (25 or 50° C.). The signal measured for 3600 sec (25° C.) or 2400 sec (50° C.) was used to determine the dissociation rate constant.

[7] = cited from earlier work
Proteinase K [8] = conditions: even without bound biotin; refs (8,32); cited from earlier work

Substance | Tm, transition midpoint of heat denaturation [1] [°C] | ΔTm, change in Tm upon addition of a three-fold molar excess of biotin ([1]; DSC) [°C] | Tm(+biotin) ([1]; DSC, biotin 3:1 molar ratio biotin:avidin monomer) [°C] | ΔH (unfolding enthalpy) ([1]; DSC, sample without biotin) [kcal/mol] | Tm(−biotin) ([1]; DSC, without biotin, average ± S.D) [°C] | Activity: biotin-binding activity after 32 min treatment at 99.9° C. [2] [%] | digested after treatment with Proteinase K (Proteinase K [3]) [%] | cleavage by Proteinase K (Proteinase K [3]) | kass, association rate constant [4] | biotin binding / dissociation rate in radiobiotin dissociation assay [5] | Release 1 h (total release of the probe) ([6]; 25° C.) [%] | kdiss, dissociation rate constant ([6]; 25° C.) | Release 1 h (total release of the probe) ([6]; 50° C.) [%] | kdiss, dissociation rate constant ([6]; 50° C.) | ΔH (unfolding enthalpy) ([7]; DSC, sample without biotin, results from ref (8)) [kcal/mol] | Tm(+biotin) ([7]; DSC, with biotin, results from ref (8)) [°C] | Tm(−biotin) ([7]; DSC, without biotin, results from ref (8)) [°C] | ΔTm, change in Tm upon addition of a three-fold molar excess of biotin ([7]; DSC, results from ref (8)) [°C] | Tm, transition midpoint of heat denaturation ([7]; from ref (8)) [°C] | resistance to cleavage by Proteinase K (Proteinase K [8])
AVD(I117Y): Avidin with mutation I117Y in 1-3 subunit interface, produced in baculovirus-infected insect cells | 97.5 | 26.2 | 123.7 ± 0.1 | 128 ± 1.4 | 97.5 ± 0.4 | 47 | 50 | no cleavage was observed | (2.3 ± 0.3) × 10^4 M^−1s^−1 | very tight, avidin-like biotin binding | 3.0 | 0.81 10^−5 s^−1 | 56.5 | 1.61 10^−4 s^−1 |  |  |  |  |  | 
AVD: Chicken avidin obtained from Belovo S. A.; homotetrameric egg-white glycoprotein (SEQ ID NO:1) [reference compound] |  |  |  |  |  | 4 | 50 | no cleavage was observed | (2.6 ± 0.2) × 10^4 M^−1s^−1 |  | 10.7 | 2.04 10^−5 s^−1 | 71.5 | 2.74 10^−4 s^−1 | 78.6 ± 1.2 | 117.0 ± 0.7 | 83.5 ± 0.1 | 33.5 | 83.5 | 
streptavidin: Bacterial analogue of avidin from Streptomyces avidinii |  |  |  |  |  |  |  |  |  |  |  |  |  |  |  |  |  |  |  | resistant to cleavage
